Results on 18 molecules are retold here after patent US20250297026A1 (PETMEDIX, published 2025).

Numbering of substitutions follows the chain as printed.

The target of experiment [1] is T1, canine CD20 (canine, UniProt Q3C2E2 1-297).
T1 chain: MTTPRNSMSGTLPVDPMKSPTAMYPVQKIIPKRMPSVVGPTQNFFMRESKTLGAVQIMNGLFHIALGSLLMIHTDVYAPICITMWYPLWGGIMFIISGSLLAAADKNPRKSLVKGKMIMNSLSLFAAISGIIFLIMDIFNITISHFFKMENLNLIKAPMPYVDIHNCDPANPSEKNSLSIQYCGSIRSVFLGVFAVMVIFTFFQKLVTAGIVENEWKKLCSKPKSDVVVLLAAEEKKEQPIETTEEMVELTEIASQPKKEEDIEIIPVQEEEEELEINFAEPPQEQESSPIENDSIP
Briefly: cell-based or functional assay.

Experiment [2] has as its target T1, canine CD20. Description: flow cytometry on cCD20-expressing MDCK II cells, 10 ug/ml antibody, FITC anti-canine IgG (FIG. 3A). Here is the method: FIG. 3. Binding assessment of anti-canine CD20 mAbs using flow cytometry. PMX001, PMX002, PMX003, PMX004, PMX005, 1 E4-cIGGB, 4E1-7-clGGB (see A) and PMX006, PMX007, PMX008, PMX009, PMX010, PMX011 (see B) and PMX003, PMX066, PMX067, PMX069, PMX070, PMX071, PMX072, PMX073, PMX074, PMX075, PMX076, PMX077, PMX078, PMX079, PMX080, PMX081, 1E4-cIGGB, 4E1-7-clGGB (see C) were applied to cCD20-expressing MDCK II cells at 10 μg/ml. Rituximab-clGGB (grey shadow) was used as the isotype control and presented in each plot. (D) Affinity determination of PMX003, PMX115 and PMX070 mAbs. Binding of 1:2 serially diluted antibodies to cCD20-expressing MDCK II cells was assessed in a binding assay and the mean values of the fluorophore signal was determined. The plot of mean fluorescence intensity (MFI) versus concentration was used to determine EC50 of binding, using non-linear regression, which is the apparent Kd of antibody binding to cell surface expressed canine CD20.
HEK293 cells or MDCK II cells were stably transfected with a vector encoding the full length of canine CD20 cDNA. Binding of antibodies to these cells were assessed using flow cytometry. […] Cells incubated with anti-canine IgG FITC secondary antibody and without primary anti-canine CD20 antibody, or with isotype control primary antibody, were used as negative controls. The data were acquired on either a Beckman Coulter CytoFLEX or a BD Accuri C6 Plus flow cytometer and analysed using FlowJo software. […] Graphs using mean fluorescence intensity (MFI) values of the FITC channel vs concentration of antibody were plotted in GraphPad Prism (FIG. 3D).
A general note: Flow cytometry measures light scatter and fluorescence of single cells or particles in a stream.

B1: PMX066 (antibody, V domains shown)
VH: AVQLVESGGDLVKPGGSLRLSCVASGITFSRYHMSWVRQAPGKGLQWVAYINSGGSATSYTDAVKGRFSISRDNGKNTLYLQMNSLRVEDSAVYYCTTLDLWGQGTLVTVSS
VL: SYVLTQLPSKNVTLKQPAHITCGGDNIGSKSVHWYQQKLGQAPVLIIYYDSRRPTGIPERFSGANSGNTATLTINGALAEDEADYYCQMWDSSANVFGGGTHLTVL
Consider B1, for which, in the experiment with canine CD20 [1], the “ADCC EC50” value came out at 0.15 nM, the “ADCC Maximum killing (%)” value amounted to 47%, the “CDC EC50” value was determined as 12.1 nM and the “CDC Maximum killing (%)” value came out at 98.5%.

B2: PMX075 (antibody, V domains shown)
VH: EVQLVESGGDLVKPGGSLRLSCVASGITFSRYHMSWVRQAPGKGLQWVAFINTGRSSTNYADAVAGRFTISRDNAKNTLYLQMNGLTVEDTAVYYCSTLDYWGQGTLVTVSS
VL: B1 VL with N11S, V44I, S51N, R52N, N75S, Q88H, M89V, A94V
Turning to B2, in the experiment with canine CD20 [1], the “ADCC EC50” value was 0.14 nM, the “ADCC Maximum killing (%)” value was found to be 46%, the “CDC EC50” value amounted to 6.02 nM and the “CDC Maximum killing (%)” value is 98.9%.

B3: PMX076 (antibody, V domains shown)
VH: EVQLVESGGDLVKPGGSLRLSCVASGITFSRYYMNWVRQAPGKGLQWVAYIDSGGSPTTYADAVKGRFTISRDNAKKALYLQMNSLRAEDTAVYYCTSFDYWGQGTLVTVSS
VL: B1 VL with R52S, N75S, Y86F, M89V
On to B3, for which, in the experiment with canine CD20 [1], the “ADCC EC50” value came out at 0.14 nM, the “ADCC Maximum killing (%)” value came to 49%, the “CDC EC50” value is 7.76 nM and the “CDC Maximum killing (%)” value came out at 98.3%.

B4: PMX071 (antibody, V domains shown)
VH: B3 VH with Q3H, S30N, A40T, K77N, A78T
VL: B1 VL with V44I, S51T, R52S, N75S, M89V
For B4, in the experiment with canine CD20 [1], the “ADCC EC50” value came out at 0.15 nM, the “ADCC Maximum killing (%)” value worked out at 41%, the “CDC EC50” value came to 28.9 nM and the “CDC Maximum killing (%)” value worked out at 94.3%.

B5: PMX074 (antibody, V domains shown)
VH: EVQLVESGGDLVKPGGSLRLSCVASGFTFSRYYMTWVRQAPGKGLQWVAYINSDRRSTTYADAVKGRFTISRDNAKNTLYLQMNSLRAEDTAVYYCTTLEYWGQGTLVTVSS
VL: B1 VL with M89V
As for B5, in the experiment with canine CD20 [1], the “ADCC EC50” value was found to be 0.12 nM, the “ADCC Maximum killing (%)” value stood at 51%, the “CDC EC50” value was 6.8 nM and the “CDC Maximum killing (%)” value stood at 98.9%.

B6: PMX069 (antibody, V domains shown)
VH: EMQLVESGGALVKPGGSLRLSCVASGFTFRRYHMSWVRQAPGQGLQWVAYIDSDGSPTSYGDSVKGRFTISRDNAKNTLFLQMNSLRVDDTAVYYCTTLDYWGRGTLVTVSS
VL: B1 VL with L7V, S29G, V44L, S51T, N75S, G76R, M89V, A94G, L106I
In the case of B6, in the experiment with canine CD20 [1], the “ADCC EC50” value came to 0.09 nM, the “ADCC Maximum killing (%)” value is 38%, the “CDC EC50” value was 7.6 nM and the “CDC Maximum killing (%)” value was found to be 98.2%.

B7: PMX081 (antibody, V domains shown)
VH: EVQLVQSGGDLVKPGGSLRLSCVASGYTFTRYHMSWVRQAPGKGLQWVAFINSDGTGITYGDAVKGRFTISRDNAKNTLYLQMNSLRAEDTAIYYCTTFDSWGQGTLVTVSS
VL: B1 VL with V44I, N75S, M89V, A94G
With B7, in the experiment with canine CD20 [1], the “ADCC EC50” value was 0.16 nM, the “ADCC Maximum killing (%)” value was determined as 51%, the “CDC EC50” value turned out to be 10.6 nM and the “CDC Maximum killing (%)” value stood at 98.5%.

B8: PMX067 (antibody, V domains shown)
VH: EIQLVESGGDLVKPGGSLRLSCVASGFTFSRYHMSWVRQAPGKGLQWVAYINTGGSNTNYADAVKGRFTISRDNAKNTLYLQMNSLRAEDTAVYYCTTLDSWGQGTLVTVSS
VL: B1 VL with S9F, N75S, M89V, A94V
As to B8, in the experiment with canine CD20 [1], the “ADCC EC50” value turned out to be 0.13 nM, the “ADCC Maximum killing (%)” value is 50%, the “CDC EC50” value came to 11.3 nM and the “CDC Maximum killing (%)” value came out at 97.8%.

B9: PMX078 (antibody, V domains shown)
VH: EVQLVESGGDLVKPGGSLRLSCVASGLTFSRYHMSWIRQAPGKGLQWVAYISSGGSSTNYAGSVKGRFTVSRDNAKNTLYLQMNSLRAEDTAVYYCTSLDYWGQGTLVTVSS
VL: B1 VL with N75S, M89V, A94D
As to B9, in the experiment with canine CD20 [1], the “ADCC EC50” value stood at 0.22 nM, the “ADCC Maximum killing (%)” value came out at 40%, the “CDC EC50” value is 9.08 nM and the “CDC Maximum killing (%)” value stood at 98.8%.

B10: PMX080 (antibody, V domains shown)
VH: B3 VH with I27L, T59N, K77N, A78T, T97S
VL: B1 VL with L4V, K10N, N11T, N75S, M89V
Turning to B10, in the experiment with canine CD20 [1], the “ADCC EC50” value came out at 0.13 nM, the “ADCC Maximum killing (%)” value was found to be 50%, the “CDC EC50” value came out at 21.9 nM and the “CDC Maximum killing (%)” value is 96.2%.

B11: PMX072 (antibody, V domains shown)
VH: B2 VH with I27F, G85S, T87R, V88A
VL: B1 VL with R52S, N75S, M89V
On to B11, for which, in the experiment with canine CD20 [1], the “ADCC EC50” value came out at 0.18 nM, the “ADCC Maximum killing (%)” value came out at 50%, the “CDC EC50” value was 19.6 nM and the “CDC Maximum killing (%)” value came out at 91.6%.

B12: PMX077 (antibody, V domains shown)
VH: B3 VH with D52N, K77N, A78T
VL: B1 VL with V44I, S51T, R52S, N75S, M89V
For B12, in the experiment with canine CD20 [1], the “ADCC EC50” value is 0.13 nM, the “ADCC Maximum killing (%)” value came to 42%, the “CDC EC50” value came out at 9.84 nM and the “CDC Maximum killing (%)” value was 98.7%.

B13: PMX079 (antibody, V domains shown)
VH: B8 VH with I2V, F27L, Y50F, T53S, G55R, N57D, N59T, L99F, S101Y
VL: B1 VL with V44A, R52S, N75S, M89V
In the case of B13, in the experiment with canine CD20 [1], the “ADCC EC50” value worked out at 0.12 nM, the “ADCC Maximum killing (%)” value was 52%, the “CDC EC50” value is 16.4 nM and the “CDC Maximum killing (%)” value was 96.7%.

B14: PMX073 (antibody, V domains shown)
VH: B3 VH with I27F, Y50F, D52T, P57S, T59S, A61G, K77N, A78T
VL: B1 VL with D50A, R52S, N75S, M89V
With B14, in the experiment with canine CD20 [1], the “ADCC EC50” value was determined as 0.21 nM, the “ADCC Maximum killing (%)” value was found to be 48%, the “CDC EC50” value was determined as 11.1 nM and the “CDC Maximum killing (%)” value came to 96.3%.

B15: PMX001 mAb (antibody, V domains shown)
VH: B8 VH with I2V, R31S, T53S, N57S, N59T, N77K, T97S, L99F, S101Y
VL: SYVLTQLPSRNVTLKQPAHITCGGDNIGSKSVHWYQQKLGQAPVLIIYYDTRRPTGIPERFSGANSGNTATLTISGALAEDEADYYCQVWDSSGNVFGGGTHLTVLG
notes: Fully canine mAb; Expressed in CHO cells
On to B15, for which, in the experiment with canine CD20 [2], the binding result is “binds”.

B16: PMX004 mAb (antibody, V domains shown)
VH: EVQLVESGGELVKPGGSLRVSCVASGITFSRYHMSWVRQAPGKGLQWVAFINTDRSSPKYADSVKGRFTISRDNAKNTLYLQMNSLRAEDTAIYYCTSFDYWGQGTLVTVSS
VL: B15 VL with R10K, T51S, R52S, G94A
notes: Fully canine mAb with dog IGGB and dog IGLC5 constant regions; Expressed in CHO cells
Take B16: in the experiment with canine CD20 [2], the binding result was “binds”.

B17: PMX002 mAb (antibody, V domains shown)
VH: EVQLVESGGDLVKPGGSLRLSCVASGIIFSNYHMSWVRQVPGKGLQWVAYINSGGSTINYADGVKGRFTISRDNAKNSLYLQMNSLRGEDTAVYYCTTYDSWGQGTLVTVSS
VL: B15 VL with R10K, T51S, R52S, G94V
notes: as for B16
B17: the binding result with canine CD20 [2] is reported as “binds”.

B18: PMX005 mAb (antibody, V domains shown)
VH: B8 VH with I2V, T53S, N57D, T58S, N59D, T98S, S101Y
VL: B15 VL with R10K, T51S, R52S, S92R
notes: as for B16
Regarding B18, the binding result in the experiment with canine CD20 [2] is recorded as “binds”.
